Assay results published in article PMC5612953, “Stable MOB1 interaction with Hippo/MST is not essential for development and tissue growth control” (Nature Communications, 2017).
Substitutions are numbered along the chain they refer to. Names may count otherwise.

T1: phospho-MOB1(K104E/K105E), full length, recombinant (human, UniProt Q9H8S9 1-216, K104E | K105E, phosphorylated in vitro by MST2 (residues 2-308); the paper names Thr12 and Thr35 as the MST1/2 phosphorylation sites of MOB1)
T1 construct: human MOB1A, full length; source: E. coli, purified (Ni-NTA), then phosphorylated in vitro by MST2 (2-308)
T1 sequence (looked up): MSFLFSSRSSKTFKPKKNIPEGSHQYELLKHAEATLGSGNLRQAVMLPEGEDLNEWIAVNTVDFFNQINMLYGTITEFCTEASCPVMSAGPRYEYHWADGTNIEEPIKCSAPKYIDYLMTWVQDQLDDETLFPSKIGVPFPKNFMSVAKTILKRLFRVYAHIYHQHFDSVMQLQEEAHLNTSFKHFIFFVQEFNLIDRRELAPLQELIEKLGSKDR

T2: human MST2 (residues 2-392) (human, UniProt Q13188 2-392)
T2 construct: human MST2, residues 2-392; also called MST2 (2-392); source: E. coli BL21(DE3), purified (Ni-NTA)
T2 sequence (looked up): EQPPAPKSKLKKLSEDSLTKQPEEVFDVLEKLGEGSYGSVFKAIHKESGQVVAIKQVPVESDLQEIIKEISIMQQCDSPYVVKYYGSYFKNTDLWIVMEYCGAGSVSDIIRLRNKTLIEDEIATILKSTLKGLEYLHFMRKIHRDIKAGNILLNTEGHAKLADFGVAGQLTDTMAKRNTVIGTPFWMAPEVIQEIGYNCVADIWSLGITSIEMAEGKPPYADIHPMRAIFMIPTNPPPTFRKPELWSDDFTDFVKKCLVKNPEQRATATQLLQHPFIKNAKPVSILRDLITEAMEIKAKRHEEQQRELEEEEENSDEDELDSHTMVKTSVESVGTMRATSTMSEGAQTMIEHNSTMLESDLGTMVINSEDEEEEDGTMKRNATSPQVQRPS

B1: human LATS1 (residues 618-697) (domain or fragment, UniProt O95835 618-697, looked up)
chain: RKNKKDEERRESRIQSYSPQAFKFFMEQHVENVLKSHQQRLHRKKQLENEMMRVGLSQDAQDQMRKMLCQKESNYIRLKR
notes: human LATS1, residues 618-697; also called LATS1 (618-697); source: E. coli BL21(DE3), purified (Ni-NTA)
B2: recombinant full-length MOB1A(D63V) (natural protein, human, UniProt Q9H8S9 1-216, looked up)
chain: T1 sequence (looked up) with D63V, E104K, E105K
notes: human MOB1A, full length; also called MOB1(D63V); source: E. coli, purified as MOB1A (33-216) (Ni-NTA)

Legend:
[1] = target: T1, phospho-MOB1(K104E/K105E), full length, …; test: SEC; purified full-length MOB1 proteins incubated with NDR2 (25-88), LATS1 (618-697) or MST2 (2-392) at 4 °C for 20 min in assembly buffer (20 mM Tris pH 8.0, 200 mM NaCl, 5 mM DTT); HiLoad 16/60 Superdex 200; fractions by SDS-PAGE and Coomassie; for LATS1 MOB1A was first phosphorylated by MST2 (2-308); details: both partners purified
[2] = target: T2, human MST2 (residues 2-392); test: as above; details: both partners purified

Binder	binding result [1]	binding result [2]
B1	binds	
B2		binds
